Article PMC4430316, “Differential Phosphorylation of RNA Polymerase III and the Initiation Factor TFIIIB in Saccharomyces cerevisiae” (PLoS ONE, 2015)

T1: Rpc160-HA (S. cerevisiae, UniProt P04051 1-1460)
T1 construct: Rpc160 (C160), largest subunit of RNA polymerase III, S. cerevisiae; Precipitated from cell extract, so other pol III subunits are probably present with it; also called C160-3HA; largest subunit of pol III; not shown: 3HA, C-terminal, kept
T1 sequence (looked up): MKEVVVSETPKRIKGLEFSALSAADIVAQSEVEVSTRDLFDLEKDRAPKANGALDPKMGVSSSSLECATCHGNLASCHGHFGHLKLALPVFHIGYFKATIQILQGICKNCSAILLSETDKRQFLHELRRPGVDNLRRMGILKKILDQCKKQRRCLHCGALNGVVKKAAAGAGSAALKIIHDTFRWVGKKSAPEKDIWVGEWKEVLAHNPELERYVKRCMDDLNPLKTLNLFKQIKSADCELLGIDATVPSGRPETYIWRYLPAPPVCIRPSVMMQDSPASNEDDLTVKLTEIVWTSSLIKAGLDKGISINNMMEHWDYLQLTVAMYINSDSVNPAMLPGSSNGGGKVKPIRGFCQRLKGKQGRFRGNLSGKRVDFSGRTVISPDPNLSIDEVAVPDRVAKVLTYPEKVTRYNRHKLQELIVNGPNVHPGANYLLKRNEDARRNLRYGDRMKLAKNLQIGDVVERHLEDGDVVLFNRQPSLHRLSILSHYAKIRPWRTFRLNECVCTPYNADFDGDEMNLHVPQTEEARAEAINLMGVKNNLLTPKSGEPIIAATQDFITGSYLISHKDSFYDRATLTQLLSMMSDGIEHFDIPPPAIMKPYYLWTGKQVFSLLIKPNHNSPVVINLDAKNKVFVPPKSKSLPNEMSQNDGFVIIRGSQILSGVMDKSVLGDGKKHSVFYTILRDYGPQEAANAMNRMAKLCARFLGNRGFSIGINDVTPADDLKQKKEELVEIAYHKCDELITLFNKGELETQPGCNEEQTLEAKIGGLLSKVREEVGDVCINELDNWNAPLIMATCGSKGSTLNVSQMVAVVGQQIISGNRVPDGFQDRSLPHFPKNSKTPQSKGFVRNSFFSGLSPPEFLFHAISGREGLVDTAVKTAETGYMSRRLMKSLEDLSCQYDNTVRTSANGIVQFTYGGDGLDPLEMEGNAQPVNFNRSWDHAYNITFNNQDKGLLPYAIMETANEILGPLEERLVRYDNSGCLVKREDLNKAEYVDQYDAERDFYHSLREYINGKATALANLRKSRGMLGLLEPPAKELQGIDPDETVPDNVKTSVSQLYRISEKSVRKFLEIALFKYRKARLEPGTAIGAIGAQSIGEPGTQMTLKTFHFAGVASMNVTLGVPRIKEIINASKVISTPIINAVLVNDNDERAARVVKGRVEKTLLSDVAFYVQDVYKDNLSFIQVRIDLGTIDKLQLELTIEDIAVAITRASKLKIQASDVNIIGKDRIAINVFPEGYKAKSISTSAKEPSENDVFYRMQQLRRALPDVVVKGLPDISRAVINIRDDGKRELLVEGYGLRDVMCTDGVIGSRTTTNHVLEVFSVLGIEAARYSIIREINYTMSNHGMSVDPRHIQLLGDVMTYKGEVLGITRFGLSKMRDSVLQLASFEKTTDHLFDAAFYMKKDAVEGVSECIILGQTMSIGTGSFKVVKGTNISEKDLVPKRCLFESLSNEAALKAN


Target: T1, Rpc160-HA
Experiment: co-IP; Rpc160-HA precipitated with HA monoclonal antibody 12CA5 and protein G-Sepharose from yeast extracts (glass bead breakage, KBC100 buffer with protease and phosphatase inhibitors); Maf1 detected with polyclonal Maf1 antibody, Maf1myc with anti-myc; cells treated with rapamycin or untreated; also in BDP1 wild-type and BDP1-4SA strains (S4 Fig)
Conditions: partners not purified

fold increase of Maf1 co-immunoprecipitated with Rpc160 in rapamycin-treated against untreated cells	fold increase of Maf1myc co-immunoprecipitated with Rpc160 in rapamycin-treated against untreated cells	Binder
~13 fold	–	Maf1 (natural protein, S. cerevisiae, UniProt P41910 1-395, looked up, Maf1, repressor of RNA polymerase III transcription, S. cerevisiae; untagged, detected with a polyclonal Maf1 antibody; Phosphorylation state differs between control and rapamycin-treated cells; also called untagged Maf1; source: endogenous, yeast cell extract) MKFIDELDIERVNQTLNFETNDCKIVGSCDIFTTKAVASDRKLYKTIDQHLDTILQENENYNATLQQQLAAPETNQSPCSSPFYSNRRDSNSFWEQKRRISFSEYNSNNNTNNSNGNSSNNNNYSGPNGSSPATFPKSAKLNDQNLKELVSNYDSGSMSSSSLDSSSKNDERIRRRSSSSISSFKSGKSSNNNYSSGTATNNVNKRRKSSINERPSNLSLGPFGPINEPSSRKIFAYLIAILNASYPDHDFSSVEPTDFVKTSLKTFISKFENTLYSLGRQPEEWVWEVINSHMTLSDCVLFQYSPSNSFLEDEPGYLWNLIGFLYNRKRKRVAYLYLICSRLNSSTGEVEDALAKKPQGKLIIDDGSNEYEGEYDFTYDENVIDDKSDQEESLQ
–	< 2 fold	Maf1myc (natural protein, S. cerevisiae, UniProt P41910 1-395, looked up, Maf1, repressor of RNA polymerase III transcription, S. cerevisiae; also called Maf1-9myc; C-terminal myc-tagged Maf1) MKFIDELDIERVNQTLNFETNDCKIVGSCDIFTTKAVASDRKLYKTIDQHLDTILQENENYNATLQQQLAAPETNQSPCSSPFYSNRRDSNSFWEQKRRISFSEYNSNNNTNNSNGNSSNNNNYSGPNGSSPATFPKSAKLNDQNLKELVSNYDSGSMSSSSLDSSSKNDERIRRRSSSSISSFKSGKSSNNNYSSGTATNNVNKRRKSSINERPSNLSLGPFGPINEPSSRKIFAYLIAILNASYPDHDFSSVEPTDFVKTSLKTFISKFENTLYSLGRQPEEWVWEVINSHMTLSDCVLFQYSPSNSFLEDEPGYLWNLIGFLYNRKRKRVAYLYLICSRLNSSTGEVEDALAKKPQGKLIIDDGSNEYEGEYDFTYDENVIDDKSDQEESLQ
